Data taken from paper PMC8204342, “Dual arginine recognition of LRRK2 phosphorylated Rab GTPases” (Biophysical Journal, 2021).

B1: Rab8a(Q67L + T72E), phosphomimetic mutant, residues 1-181 (natural protein, human, UniProt P61006 1-181, looked up)
chain: MAKTYDYLFKLLLIGDSGVGKTCVLFRFSEDAFNSTFISTIGIDFKIRTIELDGKRIKLQIWDTAGLERFREITTAYYRGAMGIMLVYDITNEKSFDNIRNWIRNIEEHASADVEKMILGNKCDVNDKRQVSKERGEKLALDYGIKFMETSAKANINVENAFFTLARDIKAKMDKKLEGNS
notes: Rab8a, human, residues 1-181, Q67L + T72E; Tag removed with thrombin; also called Rab8^TE; Rab8TE; source: E. coli, purified (Ni2+-agarose, Superdex 75); not shown: His6, N-terminal, cleaved
B2: His6-RILPL2 129-165 synthetic peptide (minimal Rab-binding domain) (peptide, UniProt Q969X0 129-165, looked up)
chain: NRPRFTLQELRDVLQERNKLKSQLLVVQEELQCYKSG
notes: source: synthetic peptide (GenScript); not shown: His6, N-terminal, kept
B3: RILPL2 extended Rab-binding domain, residues 117-165, tag cleaved (domain or fragment, human, UniProt Q969X0 117-165, looked up)
chain: GPNKMVVDLTDPNRPRFTLQELRDVLQERNKLKSQLLVVQEELQCYKSG
notes: Parallel coiled-coil dimer in the crystal; source: E. coli BL21(DE3), purified (Ni2+-agarose, TEV cleavage, MonoS); not shown: His6, N-terminal, cleaved; MBP, N-terminal, cleaved
B4: pRab8a(Q67L), human Rab8a residues 1-181 phosphorylated at T72, GTP-bound (natural protein, UniProt P61006 1-181, looked up)
chain: MAKTYDYLFKLLLIGDSGVGKTCVLFRFSEDAFNSTFISTIGIDFKIRTIELDGKRIKLQIWDTAGLERFRTITTAYYRGAMGIMLVYDITNEKSFDNIRNWIRNIEEHASADVEKMILGNKCDVNDKRQVSKERGEKLALDYGIKFMETSAKANINVENAFFTLARDIKAKMDKKLEGNS
modifications: phosphothreonine at 72 (pT72)
notes: Tag removed with thrombin (pET28a, NdeI/BamHI); also called pRab8(Q67L); phospho-Rab8a; source: E. coli, purified (Ni2+-agarose, Superdex 75), phosphorylated in vitro by MST3 kinase, separated on MonoS; not shown: His6, N-terminal, cleaved

Key:
[1] = biological target: B2; assay: ITC; Rab8^TE/pRab8a (400-600 uM) injected into RILPL2 (40-60 uM); 20 mM Tris-HCl, 150 mM NaCl, 5 mM MgCl2, 1 mM DTT, pH 7.5; triplicate; settings: both partners purified
[2] = biological target: B4; assay: as above; settings: both partners purified
[3] = biological target: B1; assay: as above; settings: both partners purified
[4] = biological target: the molecule itself; assay: crystal structure; Rab8^TE:RL2^129, 1:2 molar ratio protein/peptide, 12 mg/mL; 100 mM HEPES pH 7, 10% PEG 4000, 10% 2-propanol; 1.7 A
[5] = biological target: the molecule itself; assay: crystal structure; pRab8(Q67L):RL2^117, 1:1 molar ratio, 5 mg/mL; 150 mM DL-malic acid, 20% PEG3350; 1.9 A
[6] = biological target: B3; assay: ITC; Rab8^TE/pRab8a (400-600 uM) injected into RILPL2 (40-60 uM); 20 mM Tris-HCl, 150 mM NaCl, 5 mM MgCl2, 1 mM DTT, pH 7.5; triplicate; settings: both partners purified
[7] = biological target: T1, Full-length RILPL2 as used in calorimetry (human, UniProt Q969X0 1-211); assay: as above; settings: both partners purified
T1 construct: also called RL2-FL
T1 sequence (looked up): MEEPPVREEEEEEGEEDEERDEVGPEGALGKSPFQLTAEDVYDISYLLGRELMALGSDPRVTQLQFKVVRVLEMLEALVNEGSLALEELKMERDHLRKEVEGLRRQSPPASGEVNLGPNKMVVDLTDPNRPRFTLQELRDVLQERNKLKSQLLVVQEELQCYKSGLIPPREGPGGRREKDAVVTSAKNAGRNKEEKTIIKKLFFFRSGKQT

Q: B1 was tested. Which dH [1] did it give?
A: The dH was -2.7 kcal/mol.

Q: What about the “stoichiometry N” value [1] of the same binder?
A: Its value is 1.03.

Q: What does the source list for B2?
A: Kd [2]: 3300 nM; Kd [3]: 3400 nM; binding result [4]: binds

Q: Which Kd [2] does the source give for B3 here?
A: Its Kd is 540 nM.

Q: Does B3 bind [5]?
A: Result: binds

Q: For B4, which dH [6] is on record?
A: Its dH is -7.4 kcal/mol.

Q: What about the “stoichiometry N” value [6] of the same binder?
A: Its value is 1.1.

Q: And the dH [1]?
A: Its dH is -5.1 kcal/mol.

Q: And the “stoichiometry N” value [1]?
A: The value was 0.92.

Q: And the Kd [7]?
A: Its Kd is 1400 nM.

Q: What about the dH [7] of the same binder?
A: The dH was -1.4 kcal/mol.

Q: And the “stoichiometry N” value [7]?
A: The value was 1.04.
